According to the supplement of paper PMC9170038:

Tested on: MS2 coat protein
Test: apparent KD of MS2 coat protein; designed switch direction (-1 OFF switch, 1 ON switch): -1; higher = weaker reporter binding
How it was run: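 The reported apparent KD is a per-design median over clusters, from curve fits of normalised cluster fluorescence. Protein titrations used SNAP-549-labelled MS2 coat protein, doubled from 0.7 or 1.5 nM to 3 µM, in Tris-HCl pH 7.5 buffer with KCl, MgCl2, BSA, DTT, tRNA and Tween-20, with no input, 200 uM small-molecule ligand, or an oligonucleotide input. The RNA switches were transcribed on Illumina chips by stalled E. coli RNA polymerase.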

[1] = Eterna round: R95, input ligand: microRNA oligo, concentration not stated
[2] = input ligand: microRNA oligo, concentration not stated

Sequence	apparent KD of MS2 coat protein (input ligand: FMN 200 uM)	apparent KD of MS2 coat protein (input ligand: none)	apparent KD of MS2 coat protein [1]	apparent KD of MS2 coat protein [2]
AUGGAGGUAGUCAGGAUAUCGGGCGCUCGGGCGUACGAGAAGGGACAUGAGGAUCACCCAUGUCGCUCAUUCCA [BmEX4 C.2] (Eterna round: R97, puzzle: Brourd's mod of Exclusion 4)	24.6 nM	23.4 nM		
AUGUACCGAAGAAGUUGUAACAUGAGGAUCACCCAUGUCGAAGUGAGGACAGGGAAGAGAAGCUGUGCUCGUCAUAG [Eternabot (L2) Solution 17] (Eterna round: R97, puzzle: Sensor, turn-off variant 1)	71.6 nM	77.9 nM		
AUGUGCACGCUGCGAUCCUACAUGAGGAUCACCCAUGUGGUCUGGUGGCGUGGGUCACCGGACUUGGCUCGUCUUGA [salish99_S_TOV1_R5_067] (Eterna round: R97, puzzle: Sensor, turn-off variant 1)	117 nM	128 nM		
AUGUUGUCAGGAUAUCGUUAAUUUAGUUGUUUGUAUUAGUUCGAGAAGGGACAUGAGGAUCACCCAUGUUUGAA [Ex4 #35] (Eterna round: R97, puzzle: Exclusion 4)	41.2 nM	34.8 nM		
AUUAAAACAUAGGAUAUCGAAUUUAUUAUUUAACGAGAAGGAUGAACAUGAGGAUCACCCAUGUGGUAUCAUGG [Mat - Exclusion 6 - JL Mod - D26] (puzzle: Exclusion 6)			202 nM	
AUUAUACAUGAGGAUCACCCAUGUGAGGAUAUCCGCAGCACAGGCAGAGUCGGUUGCAGGAGAAGGCACUCCUC [Eternabot (L1) Solution 57] (Eterna round: R97, puzzle: Exclusion 1)	72.5 nM	44.4 nM		
AUUAUAUAGACAGGAUAUUGAUUAUUAUUUUAACAUGAGGAUCACCCAUGUAACCUUAUGUAUAGCAAGAAGGGUCAUUUAUUA [Title] (Eterna round: R96, puzzle: Exclusion NG 2)	107 nM	75.6 nM		72.9 nM
AUUAUAUAGACAGGAUAUUGAUUAUUAUUUUAACAUGAGGAUCACCCAUGUAACCUUAUGUGUAGCAAGAAGGGUCAUUUAUUA [Title] (Eterna round: R96, puzzle: Exclusion NG 2)				81.8 nM
AUUCGAAAGAUCCACAUGGACAUGAGGAUCACCCAUGUGCAAGCCUUUUUCUCGUCACUAUCGUCAAAAGACGAUAG [Omei Mir Offv1 A7] (Eterna round: R97, puzzle: Sensor, turn-off variant 1)	744 nM	848 nM		
AUUGAUGUUGAGGAUAUGCUUUUAUUUGUUCUUGCAGAAGGCGAUACAUGAGGAUCACCCAUGUUCAUGGAAGU [JR_E6_Sub090] (puzzle: Exclusion 6)			39.7 nM	
AUUGCGCGAGGAUAUACGAGAGACCUGUGUCAGAACCAUGGACAUGAGGAUCACCCAUGUAGAAGGCGUGCUCU [Eternabot (L1) Solution 73] (Eterna round: R97, puzzle: Exclusion 2)	78.6 nM	1200 nM		
AUUGUUUAUGUAGGAUAUGCCUGGCGUGCCUUUGCAGAAGGACAUGAGGAUCACCCAUGUAACAUGAGGCUCACCCAUGUCGCC [salish99_ExNG1_r04_114] (Eterna round: R96, puzzle: Exclusion NG 1)	162 nM	170 nM		123 nM
AUUGUUUAUGUAGGAUAUGCCUGGCGUGCCUUUGCAGAAGGACAUGAGGAUCACCCAUGUAACAUGAGGCUCACCCAUGUCGCG [salish99_ExNG1_r04_113] (Eterna round: R96, puzzle: Exclusion NG 1)	297 nM	333 nM		184 nM
AUUGUUUGAUACCUCUAAUACAUGAGGAUCACCCAUGUUAUCGAGGAUAUGUAGAAGAGAGGAGAACAGAAGGCGAAGUAAGAG [JR_ExcNG3_Sub095] (Eterna round: R96, puzzle: Exclusion NG 3)	14.6 nM	17.7 nM		14.5 nM
